Data published in patent publication US20220017620A1 (SHANGHAI FUDAN ZHANGJIANG BIO PHARMACEUTICAL, published 2022).

T1: B7-H3 antigen H4M (human 4Ig B7-H3 amino acids 27-461 with N-terminal 10 His tag and C-terminal Myc tag) (human, UniProt Q5ZPR3 27-461, Biotinylated in the phage ELISA (labeling amount approximately 2.5, sites not stated); not biotinylated in the scFv protein ELISA)
T1 construct: Expressed in Expi293; also called biotinylated B7-H3 antigen H4M; not shown: any linker between the tags and the B7-H3 part is not described
T1 sequence: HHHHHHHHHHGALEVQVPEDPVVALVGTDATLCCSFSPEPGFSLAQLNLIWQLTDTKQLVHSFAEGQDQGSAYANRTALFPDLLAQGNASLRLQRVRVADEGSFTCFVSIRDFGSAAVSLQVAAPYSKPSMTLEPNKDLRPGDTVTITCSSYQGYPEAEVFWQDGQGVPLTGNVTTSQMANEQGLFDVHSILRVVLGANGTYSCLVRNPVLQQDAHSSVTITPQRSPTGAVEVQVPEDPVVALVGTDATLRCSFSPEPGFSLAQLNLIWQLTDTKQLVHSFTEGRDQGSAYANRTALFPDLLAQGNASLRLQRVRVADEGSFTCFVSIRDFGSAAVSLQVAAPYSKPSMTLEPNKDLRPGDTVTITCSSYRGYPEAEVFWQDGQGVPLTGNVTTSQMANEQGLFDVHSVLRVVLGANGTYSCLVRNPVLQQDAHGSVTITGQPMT

T2: IgV domain of B7-H3 (human, UniProt Q5ZPR3 30-130)
T2 sequence: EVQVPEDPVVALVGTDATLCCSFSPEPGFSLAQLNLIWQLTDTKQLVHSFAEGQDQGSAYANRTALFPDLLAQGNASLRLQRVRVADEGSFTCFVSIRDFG


Legend:
[1] = target: T1, B7-H3 antigen H4M (human 4Ig B7-H3 …); test: phage ELISA, scFv displayed on phage, biotinylated H4M captured on streptavidin
Experimental: Phage ELISA screening: streptavidin with a concentration of 1 mg/ml was taken and dissolved at room temperature, after being mixed, it was diluted gradually with coating buffer to 5 μg/ml. 100 μL/well of which was then pipetted into each well in a 96-well plate, and 100 μL coating buffer only were pipetted into another 3 wells as a blank control, incubated overnight at 2-8° C. The biotinylated B7-H3 antigen H4M was taken and diluted with 0.5% BSA-PBST diluent to […], then 100 μL of which at a concentration of 20 ng/ml was pipetted into the streptavidin-coated wells, and placed into a microplate shaker. After shaking at 37° C. and 600 rpm for 1 hour, the liquid was discarded, the plate was washed for 3 times with washing buffer and pat dry. The positive phage obtained in the second or third round of panning was taken and dissolved at room temperature, after being mixed, it was diluted 500 times with the diluent. The diluted phage was aliquoted into the microtiter plate at an amount of 100 μL/well, and placed in a microplate shaker, incubating at 37° C. and 600 rpm for 1 hour. After discarding the liquid, the plate was washed for 3 times with washing buffer. Then 100 μL of diluted HRP/Anti-M137 enzyme-linked antibody was aliquoted into each well, placed into the microplate shaker, incubating at 37° C., 600 rpm for 1 hour. After discarding the liquid, the plate was washed for 3 times. Then TMB chromogenic solution was aliquoted in at 100 μL/well and incubated for color development for 15 minutes, then 1 mol/L H₂SO₄ stop solution was aliquoted at 100 μl/well to stop the reaction. A microplate reader was used to measure the absorbance at 450 nm with a wavelength of 650 nm as the reference wavelength.

[2] = target: T1, B7-H3 antigen H4M (human 4Ig B7-H3 …); test: scFv protein ELISA on coated H4M
Experimental: ELISA screening of scFv protein: B7-H3 antigen H4M was taken and dissolved at room temperature, then diluted with coating buffer to 2 ng/ml, and aliquoted into a hydrophobic enzyme-labeled plate at 100 μL/well, while 100 μL coating buffer only were pipetted into another 3 wells as a blank control, incubated overnight at 2-8° C. 100 μL of scfv protein sample was pipetted into each well, then the plate was placed into the microplate shaker, incubating for 1 hour at 37° C. and 600 rpm. After discarding the liquid, the plate was washed for 3 times with washing buffer. Then diluted enzyme-linked antibody was aliquoted into each well at 100 μL/well, placed into the microplate shaker, incubating at 37° C., 600 rpm for 1 hour. After discarding the liquid, the plate was washed for 3 times. Then TMB chromogenic solution was aliquoted in at 100 μL/well and incubated for 15 minutes, then 1 mol/L H₂SO₄ stop solution was aliquoted at 100 μL/well to stop the reaction. A microplate reader was used to measure the absorbance at 450 nm with a wavelength of 650 nm as the reference wavelength.

IgV domain of B7-H3 = target: T2, IgV domain of B7-H3; test: ELISA on coated antigen, IgG1 antibody
Experimental: Protein binding: 100 μL of antigen B7-H3 (R&D) at 20 ng/ml was coated onto microplate, incubated at 2-8° C. overnight. Subsequently, 100 μL of the prepared full-length IgG1 antibody described above was added with a total of 8 concentrations started from 2000 ng/ml and serially diluted with 3-fold, incubating at 37° C., 600 rpm for 1 hour. After the plate was washed for three times, Goat anti human IgG (Fc)-HRP enzyme-linked antibody was added and the plate was shook at 37° C. and 600 rpm for 1 hour. After the plate was washed for 4 times, TMB chromogenic solution was aliquoted in and incubated for 10 minutes, then 1 mol/L […] stop solution at 100 μL/well was aliquoted to stop the reaction and the absorbance was measured.

| Binder | ELISA signal value of Phage scFv [1] | ELISA signal value of protein scFv [2] | ELISA signal value (IgV domain of B7-H3) |
| --- | --- | --- | --- |
| P1D1 scFv (scFv) scFv: QVQLVQSGAEVKKPGESLKISCKGSGYSFTSYWIGWVRQMPGKGLEWMGIIYPGDSDTRYSPSFQGQVTISADKSISTAYLQWSSLKASDTAMYYCARRSVAGLDYWGQGTLVTVSSGSASAPTLGQGGGGGSGGGGSGGGGSKTVVTQPPSASGTPGQRVTISCSGSSSNIGSKYVYWYQQLPGTAPRLLIYRNNQRPSGVPDRFSGSKSGTSASLAISGLRSEDESDYYCASWDDRLKGYAFGTGTKVTVL | 3.65 absorbance 450 nm | 2.97 absorbance 450 nm |  |
| P1G2 scFv (scFv) scFv: QVQLQQSGAEVKKPGSSVKVSCKASGGTFSSYAISWVRQAPGQGLEWMGRIIPILGIANYAQKFQGRVTITADKSTSTAYMELSSLRSEDTAVYYCAVNYYDSSGYYSDYWGQGTLVTVSSGSASAPTLGQGGGGGSGGGGSGGGGSSYELTQPPSASGSPGQSVTISCTGTSSDVGGYNYVSWYQQHPGKAPRLMIYGVSQRPSGVPDRFSGSKSGNTASLTVSGLQAEDEADYYCSSYANNNYVFGTGTKVTVL | 3.55 absorbance 450 nm | 0.54 absorbance 450 nm |  |
| P9A12 full-length IgG1 antibody (antibody, V domains shown) VH: QVTLKESGGGLVQPGGSLRLSCAASGFTFSSYAMSWVRQAPGKGLEWVSAISGSGGSTYYADSVKGRFTISRDNSKNTLYLQMNSLRAEDTAVYYCARGAGIDAFDIWGQGTMVTVSS VL: QSALTQPASVSGSPGQSITISCTGTSSDVGAYNYVTWYQQYPGKAPKLMIYDVSERPSGVSNRFSGSKSGNTASLTISGLQAEDEADYYCSSFTSSISWVFGGGTKLTVL |  |  | 0.3 to 0.5 elisasignalvalue |
| P3B9 scFv (scFv) scFv: QIQLVQSGAEVKKPGESLKISCKGSGYSFTSYWIGWVRQMPGKGLEWMGIIYPGDSDTRYSPSFQGQVTISADKSISTAYLQWSSLKASDTAMYYCARRTPRGMDVWGQGTTVTVSSGSASAPTLGQGGGGGSGGGGSGGGGSQAVLTQPPSASGTPGQRVTISCSGSSSNIGSNYVYWYQQLPGTAPKLLIYRNNQRPSGVPDRFSGSKSGTSASLAISGLRSEDEADYYCAAWDDSLSGWVFGGGTKLTVL | 3.09 absorbance 450 nm | 3.39 absorbance 450 nm |  |

The next lines start with the values.

| ELISA signal value of Phage scFv [1] | ELISA signal value of protein scFv [2] | ELISA signal value (IgV domain of B7-H3) | Binder |
| --- | --- | --- | --- |
| 0.74 absorbance 450 nm | 0.84 absorbance 450 nm |  | P2E5 scFv (scFv) scFv: QVTLKESGGGLVQPGGSLRLSCAASGFTFSNSYMTWVRQAPGMGLEWVASMKPDGSVKHYVDSVKGRFTISRDNTKNSLDLQMNSLRAEDTAVYYCSSYDTRWGWFDPWGEGTLVTVSSGSASAPTLGQGGGGGSGGGGSGGGGSQTVVTQEPSFSVSPGGTVTLTCGLNSGSVSTSYFPSWYQQTPGQAPRTLIYNTNTRSSGVPDRFSGSILGNKAALTITGAQADDESDYYCLLYMDSGPHWVFGGGTKLTVL |
|  |  | 0.6 to 1.5 elisasignalvalue | P7F10 full-length IgG1 antibody (antibody, V domains shown) VH: QVQLQQSGGGLVQPGGSLRLSCAASGFTFSSYPMSWVRQAPGKGLEWVSVISGSGGSTFYADSVKGRFTISRDNSKNTLYLQVNSLRAEDTAVYYCAKDGRTLSGMDVWGQGTTVTVSS VL: QPVLTQPPSASGTPGQRVTISCSGSSSNIGSNPVNWYQQLPGTAPKLLIYNNNQRPSGVPDRFSGSKSGTSGSLAISGLQSEDEAHYYCAAWDVSLKEVFGGGTKVTVL |
| 3.54 absorbance 450 nm | 3.58 absorbance 450 nm |  | P2E3 scFv (scFv) scFv: QVQLVQSGAEVKKPGESLKISCKGSGYSFTSYWIGWVRQMPGKGLEWMGIIYPGDSDTRYSPSFQGQVTISADKSISTAYLQWSSLKASDTAMYYCARRSREGFDPWGQGTLVTVSSGSASAPTLGQGGGGGSGGGGSGGGGSQAVLTQPSSASGTPGQRVTMSCSGAASNIGKNFVYWYQQLPGRAPRLLISRNIQRPSEVPDRFSGSKSGTSASLAISGLQSEDEADYYCAAWDDSLNGFVFGTGTAVTVL |
